From patent CN114349860A (SHENZHEN GUEN BIOTECHNOLOGY CO LTD, dated 2022)

Molecular target: T1, FGFR4蛋白 (FGFR4 protein antigen, bought from Sino Biological / 义翘神州) (human, UniProt P22455 22-369, limits assumed)
T1 construct: also called FGFR4蛋白抗原; 成纤维细胞生长因子受体4
T1 sequence (looked up): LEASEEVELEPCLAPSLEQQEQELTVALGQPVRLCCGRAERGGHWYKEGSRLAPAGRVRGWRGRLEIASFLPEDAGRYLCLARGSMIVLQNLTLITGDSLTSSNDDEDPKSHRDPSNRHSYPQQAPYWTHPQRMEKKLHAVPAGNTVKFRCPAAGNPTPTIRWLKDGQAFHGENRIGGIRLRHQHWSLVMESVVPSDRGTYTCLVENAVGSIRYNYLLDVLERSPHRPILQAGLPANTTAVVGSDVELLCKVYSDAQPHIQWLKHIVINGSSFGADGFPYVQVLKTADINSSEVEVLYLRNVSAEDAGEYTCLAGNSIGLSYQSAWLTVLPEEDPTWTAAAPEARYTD
Assay: BLI (OCTET K2), FGFR4 protein 10 ug/mL loaded on AHC sensors, 1B5 at 566.7-8.84 nM in solution

B1: 抗成纤维细胞生长因子受体4单克隆抗体1B5 (antibody, V domains shown)
VH: EVMLVQSGPELKKPGETVKISCKASGYTFTNFGMNWVKQAPGKGLKWMGWINTYTGEPTYADDFKGRFVFSLETSASTAYLQINNLKNEDTATYLCVRSSSGYVFDYWGQGTIVTVG
VL: DIVMTQSPSSLAVSAGEKVTMSCKSSQSLLNSRTRKNYLAWYQQKPGQSPKLLIYWASTRESGVPDRFTGSGSGTDFTLTISSVQAEDLAVYYCKQSYNLLTFGEGTKLEIT
notes: Mouse hybridoma antibody (BALB/c), purified from ascites on Protein G and detected with anti-mouse IgG second antibodies; also called 1B5抗体; FGFR4单克隆抗体
Binder B1 has a Kd of less than 1 pM.
